For data set [1], the target named is T1, His-LiaR (Streptococcus mutans UA159) (UniProt Q8DVJ8).
T1 sequence: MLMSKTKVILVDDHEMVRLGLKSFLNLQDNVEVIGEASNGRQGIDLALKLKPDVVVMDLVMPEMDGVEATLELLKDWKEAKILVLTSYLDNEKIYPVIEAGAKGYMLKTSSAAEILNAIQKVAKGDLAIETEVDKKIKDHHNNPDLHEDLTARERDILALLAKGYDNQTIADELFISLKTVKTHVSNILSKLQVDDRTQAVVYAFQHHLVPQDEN
In words: EMSA. To be noted: 20 mM Tris-Cl pH 7.5, 100 mM NaCl, 0.01 mM DTT, 5% glycerol, 1 mM EDTA, 0.01 mg/ml BSA, 5 mM MgCl2, 10 ug/ml poly(dI-dC), 30 min (EMSA); BLI in binding buffer ….

A further data set has as its target T2, LiaR (Streptococcus mutans, UniProt Q8DVJ8).
T2 construct: gene SMU_487; ORF from start codon, N-terminal His tag, E. coli BL21, Ni-NTA (pASK-IBA43+, pIBE11)
Put plainly: Phos-Tag SDS-PAGE mobility shift (phosphorylation of LiaR). The conditions noted are these: 20 mM MnCl2, 50 mM Tris-Cl, 50 mM KCl, 1 mM DTT, pH 7.5, 37 °C, 1 h, phosphodonor, covalent phosphorylation. Type of data set: biochemical.

Data set [2] addresses T1, His-LiaR (Streptococcus mutans UA159). In words: competition. The conditions noted are these: 20 mM Tris-Cl pH 7.5, 100 mM NaCl, 0.01 mM DTT, 5% glycerol, 1 mM EDTA, 0.01 mg/ml BSA, 5 mM MgCl2, 10 ug/ml poly(dI-dC), 30 min (EMSA); BLI in binding buffer …. (Mobility shift assays separate free from complexed probe on a gel.)
Data set [3] addresses T3, His-LiaR-D58A D58A (Streptococcus mutans UA159) (UniProt Q8DVJ8).
T3 sequence: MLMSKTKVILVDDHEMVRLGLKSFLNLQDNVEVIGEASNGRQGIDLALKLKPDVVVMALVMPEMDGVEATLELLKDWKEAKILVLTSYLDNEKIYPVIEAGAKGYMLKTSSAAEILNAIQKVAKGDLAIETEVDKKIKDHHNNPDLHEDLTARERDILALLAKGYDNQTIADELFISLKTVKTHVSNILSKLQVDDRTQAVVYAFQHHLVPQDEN
Put plainly: EMSA. The conditions noted are these: 20 mM Tris-Cl pH 7.5, 100 mM NaCl, 0.01 mM DTT, 5% glycerol, 1 mM EDTA, 0.01 mg/ml BSA, 5 mM MgCl2, 10 ug/ml poly(dI-dC), 30 min (EMSA); BLI in binding buffer ….

The target in data set [4] is T4, His-LiaR (Streptococcus mutans UA159, UniProt Q8DVJ8 1-215). In words: EMSA; 15-30 pmol LiaR; 20 mM Tris-Cl pH 7.5, 100 mM NaCl, 0.01 mM DTT, 5% glycerol, 1 mM EDTA, 0.01 mg/ml BSA, 5 mM MgCl2, 10 ug/ml poly(dI-dC), 30 min (EMSA); BLI in binding buffer. To be noted: protein: recombinant; tags: N-terminal His; chain copies: 2; label: 32P end label.
Data set [5] addresses T4, His-LiaR. Put plainly: BLI; 1 uM LiaR; 20 mM Tris-Cl pH 7.5, 100 mM NaCl, 0.01 mM DTT, 5% glycerol, 1 mM EDTA, 0.01 mg/ml BSA, 5 mM MgCl2, 10 ug/ml poly(dI-dC), 30 min (EMSA); BLI in binding buffer. To be noted: protein: recombinant; tags: N-terminal His; chain copies: 2; label: 32P end label (EMSA); 3' biotin on one strand (BLI). In general terms: In BLI a coated tip is dipped into the sample, and binding shifts an interference pattern.

For data set [6], the target named is T4, His-LiaR. Put plainly: BLI; 1 uM LiaR; Req reduced 3-fold; 20 mM Tris-Cl pH 7.5, 100 mM NaCl, 0.01 mM DTT, 5% glycerol, 1 mM EDTA, 0.01 mg/ml BSA, 5 mM MgCl2, 10 ug/ml poly(dI-dC), 30 min (EMSA); BLI in binding buffer. To be noted: protein: recombinant; tags: N-terminal His; chain copies: 2; label: 32P end label (EMSA); 3' biotin on one strand (BLI).

From PMC4447274, “Gene Regulation by the LiaSR Two-Component System in Streptococcus mutans” (PLoS ONE, 2015) come the findings set out here.

“CTTGTTTGAAGAGATAACTTTTTTGTTATCAAACTTGTATCCGTCTAGGATTAAGACTGTATAAGATTGATGTATGATAACTAAGCTATGGCGTCTTTGATATTTGAAAAATTCTCTTTATCTTTAGTGTTATTTGGTCTAGATCAAGAGGTGAAATTTATCCTAAATTTTGATACAATGACTAATAATTGTAGAACTGAAGGAAGCCTTATG (double strand) [Alternative PSMU.485]”: the binding result in data set [1] is “no binding”.

With `NP(=O)(O)O` [PA, phosphoamidate], on LiaR (20 mM phosphoamidate), the “Phos-Tag SDS-PAGE mobility shift (phosphorylation of LiaR)” value was “The wild-type protein readily acquired phosphate from both acetyl phosphate and phosphoamidate”.

For the molecule “TTAATTGAGGAAGATAATACTGAAGAAAAACAGTCTTCTAAAGAAAAAGAAACTGATGAGAAAGCTGACAAAAACCTTGTTTTAGAGCTGGATGATACAATTGAGCTTGAAGATTAAATAAAAATAGGTCCCAAGACCGACTCTTTATTTAATAAGCTATGCTAAGATAATATTATCCTGTAAGGAAAGAGAGATTTAAAC (double strand) [PSMU.2084]”, the binding result in data set [2] is given as “binds”; in data set [1], “binds”; in data set [3] it was “no binding”.

As for “GTTTATTCAAGAAATTCGCAAAGGTCCATCTCCTTTTTCTAAAGTCACTTATGTTGACGTCAATATAGCAAATTTTTCTGATTACCATGATTTCAGAATGGCCAATTAATTTATCTCAAAATCATTCTCAAGAACTATTGAGTATTTTACTAAAAAACAGTAAAATAGATAGGTATTATTAAAATCAAAGGAAGATTATC (double strand) [PSMU.1727]”, the binding entry in data set [1] is listed as “binds”.

As to “AGCTTAGTTATCATACATCAATCTTATACAGTCTTAATCCTAGACGGATACAAGTTTGATAACAAAAAAGTTATCTCTTCAAACAAGGAGGCTGAGGCAAGAACCTTAAACTTATAAATATAATAACTACAACATATGAGTATACCTGCATTAGATAACATTATTATCAACAGATCATAAACATAACTTGAATTGACATG (double strand) [PSMU.485 (Plia)]”, the binding entry in data set [1] was “no binding”.

Take `CC(=O)OP(=O)(O)O` [Ac-Po4, acetyl phosphate]: the “Phos-Tag SDS-PAGE mobility shift (phosphorylation of LiaR)” value on LiaR (50 mM acetyl phosphate) was “The wild-type protein readily acquired phosphate from both acetyl phosphate and phosphoamidate”.

In the case of “ATTACCAATGTGAATCGTGTGGTCAAGTTTATCAAAGAAAAAGACGAATGAATACGAAAAAATACGCTTGTGGCAACTGCCATGGAAAATTAAGACATCAAAATCAGTCGTAAGGCTGATTTTATTCTTCTCTAAATAGTTTATACTAATAGCATCATGAGATTTGTGATTCATTTTTTAAAAAAGGGAGAGTTGTTTGT (double strand) [PSMU.753]”, in data set [1], the binding entry is recorded as “binds”.

Regarding “CCTAAGTCCACCTCCCATCTTTAATCAATAGAGTTAGCACTCTTAACAGACGACTGCTAACTTCATAATTCCATTATACTCCATTCCTAATTTCTGTCAAGAGAAAAATACAAAAAATTAGCACTCTTTCTGCTTGAGTGCTAAAAATCCGACTTAAGACTTAGTTTTATTGCTGT (double strand) [PhrcA]”, in data set [1], the binding result is recorded as “binds”.

B1: IR only (16-bp) (dsDNA)
DNA 1: TCAGTCTCAAGACCGATT
DNA 2: AATCGGTCTTGAGACTGA
As for B1, the binding result with His-LiaR [4] is “no binding”.

B2: A23G/T25C consensus (dsDNA)
DNA 1: ATCAAAATCAGTCTCAAGACCGGTC
DNA 2: GACCGGTCTTGAGACTGATTTTGAT
B2: in the data set with His-LiaR [5], the binding signal is ~1.5 fold reduction of Rmax and Req vs consensus.

B3: C13A/A17G consensus (dsDNA)
DNA 1: ATCAAAATCAGTATCAGGACCGATT
DNA 2: AATCGGTCCTGATACTGATTTTGAT
As to B3, the binding signal in the data set with His-LiaR [6] is ~4 fold reduction of Rmax vs consensus.
